Values quoted from earlier work as cited in article PMC6746776.

Target: p63 TAD TAD (Homo sapiens) (UniProt Q9H3D4)
Sequence (Q9H3D4 1-107): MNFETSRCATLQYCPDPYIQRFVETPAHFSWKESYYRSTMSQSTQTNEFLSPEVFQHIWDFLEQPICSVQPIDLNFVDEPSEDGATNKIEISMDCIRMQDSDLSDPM

Chain of p300 Taz2 (Q09472 1723-1812): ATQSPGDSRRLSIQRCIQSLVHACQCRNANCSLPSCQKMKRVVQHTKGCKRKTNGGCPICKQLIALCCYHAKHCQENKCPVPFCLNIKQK

- Kd: 196 nM
Substance: p300 Taz2 (from UniProt Q09472)
